Results on 4 molecules are retold here after article PMC3299411 (Molecular Cell, 2011).

Holding throughout (assay): cross-linking
In data set [1] the target is H3 (Drosophila (endogenous in S2 cells)) (UniProt P02299).
The target in data set [2] is T1, endogenous CID (Drosophila (endogenous in S2 cells)), Q9V6Q2.
T1 chain: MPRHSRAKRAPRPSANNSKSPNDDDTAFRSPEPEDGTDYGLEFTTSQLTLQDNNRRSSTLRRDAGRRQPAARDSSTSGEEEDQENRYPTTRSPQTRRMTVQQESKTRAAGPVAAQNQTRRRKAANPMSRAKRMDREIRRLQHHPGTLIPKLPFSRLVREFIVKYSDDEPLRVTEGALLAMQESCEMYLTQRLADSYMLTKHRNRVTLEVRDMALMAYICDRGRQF
Conditions: remark: other sources report otherwise.

Data set [3] concerns the molecule itself.
For data set [4], the target named is T2, FLAG-CID (N-terminally FLAG-tagged CID, wild type) (Drosophila), Q9V6Q2.
T2 chain: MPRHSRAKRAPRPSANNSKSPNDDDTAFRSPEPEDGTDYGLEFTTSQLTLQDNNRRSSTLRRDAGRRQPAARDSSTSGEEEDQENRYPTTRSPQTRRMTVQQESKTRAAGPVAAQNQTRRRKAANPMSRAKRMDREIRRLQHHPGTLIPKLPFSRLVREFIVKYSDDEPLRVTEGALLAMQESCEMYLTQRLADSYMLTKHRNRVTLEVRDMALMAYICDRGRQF
To be noted: remark: other sources report otherwise.

The term stoichiometry N denotes a count of units in the complex or per binding partner.

Take “H3 (from UniProt P02299 1-136) (natural protein)”: in data set [1], the stoichiometry N came out at 2.

B1: endogenous CID, Q9V6Q2 1-225 (natural protein)
chain: MPRHSRAKRAPRPSANNSKSPNDDDTAFRSPEPEDGTDYGLEFTTSQLTLQDNNRRSSTLRRDAGRRQPAARDSSTSGEEEDQENRYPTTRSPQTRRMTVQQESKTRAAGPVAAQNQTRRRKAANPMSRAKRMDREIRRLQHHPGTLIPKLPFSRLVREFIVKYSDDEPLRVTEGALLAMQESCEMYLTQRLADSYMLTKHRNRVTLEVRDMALMAYICDRGRQF
Molecule B1 came in with a stoichiometry N in data set [2] of 2.

B2: FLAG-CID^D211A (natural protein, Drosophila, UniProt Q9V6Q2 1-225, looked up)
chain: MPRHSRAKRAPRPSANNSKSPNDDDTAFRSPEPEDGTDYGLEFTTSQLTLQDNNRRSSTLRRDAGRRQPAARDSSTSGEEEDQENRYPTTRSPQTRRMTVQQESKTRAAGPVAAQNQTRRRKAANPMSRAKRMDREIRRLQHHPGTLIPKLPFSRLVREFIVKYSDDEPLRVTEGALLAMQESCEMYLTQRLADSYMLTKHRNRVTLEVRAMALMAYICDRGRQF
B2: the “ratio dimer:monomer after crosslinking” value in data set [3] is under 3.

B3: FLAG-CID (N-terminally FLAG-tagged CID, wild type), Q9V6Q2 1-225 (natural protein)
chain: MPRHSRAKRAPRPSANNSKSPNDDDTAFRSPEPEDGTDYGLEFTTSQLTLQDNNRRSSTLRRDAGRRQPAARDSSTSGEEEDQENRYPTTRSPQTRRMTVQQESKTRAAGPVAAQNQTRRRKAANPMSRAKRMDREIRRLQHHPGTLIPKLPFSRLVREFIVKYSDDEPLRVTEGALLAMQESCEMYLTQRLADSYMLTKHRNRVTLEVRDMALMAYICDRGRQF
With B3, in data set [4], the ratio dimer:monomer after crosslinking was over 55 and the stoichiometry N turned out to be 2.
